Reference: paper PMC11240984

Columns and labels:
[1] = biological target: F-actin (fibrillar actin from rabbit skeletal muscle) (rabbit) (UniProt P68135)
[2] = biological target: F-actin (fibrillar actin from rabbit skeletal muscle) (rabbit) (UniProt P68135); experiment: co-sedimentation; 10 µM F-actin with 0.5 to 7.5 µM Tpm in 30 mM Hepes-Na pH 7.3, 200 mM NaCl; pelleted at 100,000 x g; SDS-PAGE of pellet and supernatant; apparent affinity, K50% = free Tpm at half-saturation of actin
[3] = biological target: F-actin (fibrillar actin from rabbit skeletal muscle) (rabbit) (UniProt P68135); experiment: light scattering on heating (thermally induced dissociation of Tpm from F-actin); 20 µM phalloidin-stabilized F-actin and 10.5 µM Tpm (legend: 10 µM) in 30 mM Hepes-Na pH 7.3, 100 mM NaCl; heated to 65 °C at 1 °C/min; 350 nm, 90°; T_diss = temperature of 50% decrease in light scattering
[4] = viscosity measurement (falling ball micro viscometer); Tpm 1 mg/mL in 30 mM Hepes-Na pH 7.3, NaCl from 30 to 200 mM, 4 mM DTT, 20 °C; excess viscosity over buffer as measure of end-to-end interactions between adjacent Tpm molecules; settings: other: viscosity measurement (falling ball micro viscometer)

Substance | bending stiffness of Tpm–F-actin filaments, two-beam optical trap, median (IQT, N); F-actin alone 2.35 [1] [N∙m^2] | K50% [2] [µM] | T diss (temperature of half-dissociation of Tpm from F-actin) [3] [°C] | excess viscosity at 30 mM NaCl [4] | excess viscosity at 200 mM NaCl [4] | solution viscosity at 200 mM NaCl [4] [mPa·s]
AS-Tpm1.9, Tpm1.9 with N-terminal Ala-Ser extension (natural protein) | 4.7e-26 | 0.98 | 47 |  |  | 
Tpm1.9, cytoplasmic tropomyosin isoform (human, TPM1 gene product) |  |  |  | approximately 2.25 mPa·s for 30 mM NaCl | close to 0.5 mPa·s for 200 mM NaCl | 0.886
AS-Tpm1.9, Tpm1.9 with N-terminal Ala-Ser extension |  |  |  | approximately 2.25 mPa·s for 30 mM NaCl | close to 0.5 mPa·s for 200 mM NaCl | 
Tpm1.8, cytoplasmic tropomyosin isoform (human, TPM1 gene product) |  |  |  |  |  | 0.593

The next lines start with results.

bending stiffness of Tpm–F-actin filaments, two-beam optical trap, median (IQT, N); F-actin alone 2.35 [1] [N∙m^2] | K50% [2] [µM] | T diss (temperature of half-dissociation of Tpm from F-actin) [3] [°C] | Substance | excess viscosity at 30 mM NaCl [4] | excess viscosity at 200 mM NaCl [4] | solution viscosity at 200 mM NaCl [4] [mPa·s]
4.8e-26 | 0.79 | 46.2 | Tpm1.9, cytoplasmic tropomyosin isoform (human, TPM1 gene product) (natural protein) |  |  | 
3.75e-26 | 0.3 | 44.4 | Tpm1.8, cytoplasmic tropomyosin isoform (human, TPM1 gene product) (natural protein) |  |  | 
8.1e-26 | 0.59 | 44.4 | AS-Tpm1.8, Tpm1.8 with N-terminal Ala-Ser extension (natural protein) |  |  | 
